From publication PMC7728815, “Substrate-binding destabilizes the hydrophobic cluster to relieve the autoinhibition of bacterial ubiquitin ligase IpaH9.8” (Communications Biology, 2020)
Substitutions are numbered along the chain they refer to. Names may count otherwise.

What was measured:
[1] = target: T1, human guanylate-binding protein 1 (hGBP1), full-length (human, UniProt P32455 1-592, NT-647-NHS label (in the MST assay only)); experiment: crystal structure; 0.3 mM IpaH9.8^LRR (22–244) mixed with 0.3 mM full-length hGBP1 and 5 mM GDP; 3.5 M NaCl, 0.1 M sodium citrate pH 6.5, 20 °C; space group P6122, one heterodimer in the asymmetric unit; settings: both partners purified
T1 construct: full-length in the crystallized complex; in MST it was fluorescently labelled (NT-647-NHS) and no nucleotide is mentioned
T1 sequence (looked up): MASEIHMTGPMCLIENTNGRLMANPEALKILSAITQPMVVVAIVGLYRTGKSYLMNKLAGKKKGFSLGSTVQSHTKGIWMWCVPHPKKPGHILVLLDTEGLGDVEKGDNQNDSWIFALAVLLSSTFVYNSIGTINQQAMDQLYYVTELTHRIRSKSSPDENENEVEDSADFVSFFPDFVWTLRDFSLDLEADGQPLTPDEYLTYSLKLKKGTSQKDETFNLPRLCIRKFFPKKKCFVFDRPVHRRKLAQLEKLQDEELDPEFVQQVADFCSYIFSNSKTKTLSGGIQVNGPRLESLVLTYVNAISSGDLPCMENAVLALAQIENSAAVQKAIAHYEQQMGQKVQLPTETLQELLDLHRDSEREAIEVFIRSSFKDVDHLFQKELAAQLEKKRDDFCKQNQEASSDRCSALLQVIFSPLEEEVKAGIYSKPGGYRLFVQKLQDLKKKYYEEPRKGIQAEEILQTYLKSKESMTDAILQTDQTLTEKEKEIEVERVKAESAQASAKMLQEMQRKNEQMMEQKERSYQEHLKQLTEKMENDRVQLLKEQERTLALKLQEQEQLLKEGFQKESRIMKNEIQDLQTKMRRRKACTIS

[2] = target: the molecule itself; experiment: native gel or EMSA; Native-PAGE of IpaH9.8 and IpaH9.8-C337A under reducing and non-reducing conditions
[3] = target: T1, human guanylate-binding protein 1 …; experiment: MST; 75 nM NT-647-NHS-labeled hGBP1 in PBS pH 7.4; IpaH9.8 titrated in, 30 min at room temperature; Monolith NT.Automated; settings: both partners purified

B1: IpaH9.8^LRR (22–244), LRR domain of IpaH9.8 (domain or fragment)
chain: TYADYFSAWDKWEKQALPGEERDEAVSRLKECLINNSDELRLDRLNLSSLPDNLPAQITLLNVSYNQLTNLPELPVTLKKLYSASNKLSELPVLPPALESLQVQHNELENLPALPDSLLTMNISYNEIVSLPSLPQALKNLRATRNFLTELPAFSEGNNPVVREYFFDRNQISHIPESILNLRNECSIHISDNPLSSHALPALQRLTSSPDYHGPRIYFSMSD
notes: Leucine-rich repeat domain of IpaH9.8 of S. flexneri, residues 22–244 as crystallized (the plasmid section says 21–244); Plasmids section gives 21–244, crystallization section 22–244; also called IpaH9.8 LRR domain; IpaH9.8^LRR-Sub
B1: binds [1].

B2: IpaH9.8 (wild type, Shigella flexneri) (enzyme)
chain: MLPINNNFSLPQNSFYNTISGTYADYFSAWDKWEKQALPGEERDEAVSRLKECLINNSDELRLDRLNLSSLPDNLPAQITLLNVSYNQLTNLPELPVTLKKLYSASNKLSELPVLPPALESLQVQHNELENLPALPDSLLTMNISYNEIVSLPSLPQALKNLRATRNFLTELPAFSEGNNPVVREYFFDRNQISHIPESILNLRNECSIHISDNPLSSHALPALQRLTSSPDYHGPRIYFSMSDGQQNTLHRPLADAVTAWFPENKQSDVSQIWHAFEHEEHANTFSAFLDRLSDTVSARNTSGFREQVAAWLEKLSASAELRQQSFAVAADATESCEDRVALTWNNLRKTLLVHQASEGLFDNDTGALLSLGREMFRLEILEDIARDKVRTLHFVDEIEVYLAFQTMLAEKLQLSTAVKEMRFYGVSGVTANDLRTAEAMVRSREENEFTDWFSLWGPWHAVLKRTEADRWAQAEEQKYEMLENEYPQRVADRLKASGLSGDADAEREAGAQVMRETEQQIYRQLTDEVLALRLPENGSQLHHS
notes: IpaH9.8, bacterial E3 ubiquitin ligase of S. flexneri; the wild-type gene was synthesised and cloned as 'IpaH9.8' into pET28M; No tag cleavage is described although the vector has a TEV site; also called IpaH9.8-WT; wild-type IpaH9.8
B2: binds [2]; binds [3].

B3: IpaH9.8-C337A (enzyme)
chain: B2 chain with C337A
notes: IpaH9.8 of S. flexneri with the active cysteine changed (C337A); mutants made by PCR-based mutagenesis; likely the same as m1
B3: binds [2].

B4: IpaH9.8-R166A (enzyme)
chain: B2 chain with R166A
notes: IpaH9.8 of S. flexneri with Arg166 changed to alanine; mutants made by PCR-based mutagenesis; likely the same as m1; also called IpaH9.8 mutant R166A
B4: binds [3].
